Data from patent US5456909A, “Glycoform fractions of recombinant soluble complement receptor 1 (sCR1) having extended half-lives in vivo” (T Cell Sciences, Inc., priority 1992, dated 1995).
Values joined by “and” are separate entries in the source; they are usually repeats but may differ in a detail not shown here. Identical values can stand only once.

Columns and labels:
[1] = Pharmacokinetic studies 6 and 8: iv TP10HD-CCW and TP10HD-CCS in rabbits, radiometric and immunoassay; format: in vivo, Dutch rabbits; details: 1 mg/kg
Description: In Studies 6 and 8, iodination was performed by the iodogen method (Fraker et al., 1978, Biochem Biophys Res Commun 80:849); the average degree of ^125 I substitution was 0.56 atoms/molecule of protein resulting in a specific activity of 22.7 kBq/mg for STUDY 6, and the average degrees of ^125 I substitution was 0.76 atoms/molecule of protein resulting in a specific activity of 29.5 kBq/mg for STUDY 8.
Studies 6 and 8: As described in STUDY 2 except that the radioiodinated TP10HD-CCW was added to ~1% w/w.
In Studies 6 and 8, test material was injected iv into a group of 5 Dutch rabbits (approximately 1 kg) at a dose of 1 mg/kg. Blood samples, 1 ml, were taken from an ear artery immediately predosing and at 5, 10, 20, 30, 60, 120 and 180 minutes, mixed with heparin, and radioactivity determined in an aliquot by scintillation counting after precipitation with trichloroacetic acid.
Plasma samples were analyzed for residual test material by an enzyme immunoassay (EIA) specific for TP10HD. Pharmacokinetic half-life was calculated from both the radiometric and immunoassay data.
Precipitation with trichloroacetic acid was performed as follows: Plasma (20 μl) was precipitated by sequential addition of 450μl of 0.13M Tris HCl, 4% SDS, 10% glycerol, pH 6.8 buffer, followed by 30 μl of fetal bovine serum and 500μl of 20% trichloroacetic acid. After each addition, the tubes were vigorously mixed and incubated for […] at 4° C.; the pellets of precipitable protein were collected by centrifugation at 1000×g for 10 minutes, the supernatants removed and discarded, and the residual radioactivity measured by scintillation counting.
A commercially available assay was utilized (Cellfree® CD35, T Cell Diagnostics, Inc. Cambridge, Mass.). In brief, polystyrene beads coated with polyclonal rabbit anti-TP10HD antibodies were simultaneously incubated with the diluted test sample and a horse radish peroxidase-conjugated polyclonal rabbit anti-TP10HD antibody. Following incubation, the beads were removed from the reaction mixture, washed of nonspecifically bound material, and subsequently incubated in the presence of an appropriate dilution of substrate. Color development was terminated by the addition of sulfuric acid and the absorbance (optical density) determined as a measure of TP10HD concentration.

[2] = test system: complement-mediated lysis of antibody coated SRBC; experiment: Inhibition of complement-mediated hemolysis of antibody-sensitized SRBC in vitro; format: cell-based, human; details: for IH50 (concentration giving 50% inhibition of hemolysis): SRBC, human serum as complement source; for antihemolytic potency comparison, in words: in vitro
Description: SRBC presensitized with rabbit anti-SRBC antibody (Diamedix, Miami, Fla.) were mixed in a V-bottom microtiter wells (Costar, Cambridge, Mass.) with an appropriate dilution of the test plasma and an aliquot of diluted human serum as a complement source. After incubation, 37° C., 1 hour, the unlysed red cells were pelleted by centrifugation, the supernatant transferred to corresponding flat bottom microwells (Costar, Cambridge, Mass.), and absorbance at 415 nm measured. Inhibition of complement-mediated lysis of the antibody coated SRBC was measured as a reduction in the absorbance in the presence of test sample.
A range of dilutions of TP10HD or TP10HD glycoform spanning 7.8 to 1000 ng/ml was examined for each sample.

[3] = Pharmacokinetic studies 1, 4, 5, 7, 9: iv clearance of 125I-labelled TP10HD preparations in rats; format: in vivo, Sprague-Dawley rats; details: 1 mg/kg
Description: In Studies 1, 2, 4, 5, 7 and 9, Iodination was carried out by the chloramine-T procedure. Sodium phosphate buffer, 0.5M, pH 7.6, 50 μl, was added to 1 mCi of Na-^125 I (New England Nuclear, Boston, Mass.) as supplied. The sample of TP10HD, typically 100 μg in 100 μl (Study 5=69 μg; Study 7=34 μg; Study 9=91 μg), was added followed by 50 μl of a 15 mg/ml solution of freshly prepared chloramine-T. The reaction mixture was vigorously shaken for 60 seconds. Sodium metabisulfite (50 μl, 15 mg/ml) and sodium iodide (100 μl, 10 mg/ml) were successively pipetted into the reaction vial. The reaction mixture was passed onto a PD10 column (Pharmacia Fine Chemicals, Piscataway, N.J.), pre-equilibrated with phosphate buffered saline, pH 7.2-7.4, containing 0.1% bovine serum albumin (Sigma Chemical Company, St. Louis, Mo.). Ten 0.5 ml fractions were collected and 2 μl aliquots were counted directly and after combining with 100 μl of a 0.1% bovine serum albumin solution and 1 ml of 20% trichloroacetic acid. After incubation at 0° C. for 1 hour, the acid-precipitable protein associated radioactivity was collected by centrifugation for 10 minutes at 1000×g and quantitated by scintillation counting. Fractions containing >90% of the total radioactivity in the acid precipitate were pooled for further use.
Study 1: Radioiodinated TP10HD-CX was mixed with purified unlabeled TP10HD-CX to yield a dosing solution suitable for administering a 1 mg/kg total TP10HD dose containing 16-25×10^6 cpm of radiolabeled TP10HD-CX.
Study 4: Radioiodinated TP10HD-CC was mixed with purified unlabeled TP10HD-CC to yield a dosing solution suitable for administering a 1 mg/kg or a 3 mg/kg total TP10HD dose containing ~20×10^6 cpm.
Study 5: Radioiodinated TP10HD-CCW was mixed with purified unlabeled TP10HD-CCW to yield a dosing solution suitable for administering a 1 mg/kg total TP10HD dose containing ~20×10^6 cpm.
Study 7: Radiolabeled TP10HD-CCS was mixed with purified unlabeled TP10HD-CCS to yield a dosing solution suitable for administering a 1 mg/kg total TP10HD dose containing ~20×10^6 cpm.
Study 9: Radioiodinated TP10HD-CXD was mixed with purified unlabeled TP10HD-CXD to yield a dosing solution suitable for administering a 1 mg/kg total TP10HD dose containing ~20~10^6 cpm.
In Studies 1, 4, 5, 7 and 9, test material was injected intravenously (iv) into four Sprague-Dawley rats (2 male, 2 female). Blood samples were obtained from the retroorbital plexus at 1, 3, 5, 10, 20, 30, 45, and 60 minutes post injection, and the radioactivity determined. Additional post infusion blood samples were taken at 2, 3, and 4 hours postinjection (STUDY 4) and at 120 minutes (STUDY 5). The plasma fraction of the remaining blood sample was retained for further analysis.
Plasma samples were analyzed for residual test material by measuring:
(1) total residual radioactivity;
(2) percentage of radiolabeled material precipitated with TCA;
(3) residual acid precipitable radioactivity in the presence of SDS; and
(4) material immunologically identifiable in an enzyme immunoassay as TP10HD.
Radioisotope data was quantitated as total cpm/ml blood or plasma and as the percentage of a theoretical time zero value. Pharmacokinetic half-life was calculated from the radiometric data.
In Study 9, removal of N-linked oligosaccharide chains was performed by n-glycanase digestion, performed according to manufacturer's instructions (Genzyme Corporation, Boston, Mass.). Typically, 58 μg TP10HD-CX was incubated with 10.5 units of n-glycanase for 18 hours, 37° C., in 0.2M sodium phosphate, pH 8.6 buffer.
Precipitation with trichloroacetic acid was performed as follows: Plasma (20 μl) was precipitated by sequential addition of 450μl of 0.13M Tris HCl, 4% SDS, 10% glycerol, pH 6.8 buffer, followed by 30 μl of fetal bovine serum and 500μl of 20% trichloroacetic acid. […]

Substance: TP10HD-CCS: the strongly cationic form of TP10HD-CC isolated by preparative HPLC cation exchange chromatography
- % dose cleared, α-phase ([1]; immunoassay data): 73%
- % dose cleared, β-phase ([1]; immunoassay data): 27%
- Serum half-life, α-phase ([1]; immunoassay data): 0.167 h
- Serum half-life, β-phase ([1]; immunoassay data): 1.27 h
- Total Clearance ([1]; immunoassay data): 1.24 mL/min/kg
- % dose cleared, β-phase ([1]; radiometric data): 25.5 ± 1.5% and ~25%
- Peak (t = O) concentration ([1]; radiometric data): 14.6 ± 1.0 µg/mL
- Serum half-life, β-phase ([1]; radiometric data): 3.6 h and 3.608 ± 0.613 h
- Total Clearance ([1]; radiometric data): 0.85 ± 0.12 mL/min/kg and 0.85 mL/min/kg
- Volume of Distribution, α-phase ([1]; radiometric data): 0.0698 ± 0.0048 L/kg
- Volume of Distribution, β-phase ([1]; radiometric data): 162.0 ± 13.9 ml/kg and ~ 162 ml/kg
- IH50 (concentration giving 50% inhibition of hemolysis) [2]: ~27 ng/mL
- antihemolytic potency comparison, in words [2]: no basis for concluding that TP10HD-CC, TP10HD-CCW and TP10HD-CCS differ in their potency
- α phase half-life [3]: 0.111 h
- β phase half-life [3]: 2.22 h

Substance: TP10HD-CCW: the weakly cationic form of TP10HD-CC isolated by preparative HPLC cation exchange chromatography
- % dose cleared, α-phase ([1]; immunoassay data): 30%
- % dose cleared, β-phase ([1]; immunoassay data): 70%
- Serum half-life, α-phase ([1]; immunoassay data): 0.233 h
- Serum half-life, β-phase ([1]; immunoassay data): 6.27 h
- Total Clearance ([1]; immunoassay data): 0.1 mL/min/kg
- % dose cleared, β-phase ([1]; radiometric data): 69.1 ± 1.9% and ~70%
- Peak (t = O) concentration ([1]; radiometric data): 17.8 ± 0.3 µg/mL
- Serum half-life, β-phase ([1]; radiometric data): 3.6 h and 3.61 ± 0.313 h
- Total Clearance ([1]; radiometric data): 0.26 ± 0.02 mL/min/kg and 0.26 mL/min/kg
- Volume of Distribution, α-phase ([1]; radiometric data): 0.0562 ± 0.001 L/kg
- Volume of Distribution, β-phase ([1]; radiometric data): 22.6 ± 1.9 ml/kg and ~ 23 ml/kg
- IH50 (concentration giving 50% inhibition of hemolysis) [2]: 44 ng/mL
- antihemolytic potency comparison, in words [2]: no basis for concluding that TP10HD-CC, TP10HD-CCW and TP10HD-CCS differ in their potency
- α phase half-life [3]: 0.2035 h
- β phase half-life [3]: 1.67 h
